Results reported in patent US20240124586A1.

Assays:
human C1Q (human) [1] = biological target: human C1Q (human) (UniProt P02745); assay: ELISA, antibody coated on the plate, C1q titrated (axis: [C1q] nM), anti-C1q-HRP detection
human C1Q (human) [2] = biological target: human C1Q (human) (UniProt P02745); assay: ELISA, antibody coated on the plate, C1q titrated (the concentration is that of C1q)
[3] = biological target: human CD19 on CD19+ B cell lines (Ramos, Raji) (human) (UniProt P15391); assay: FACS bridging of pre-labelled Jurkat (CD3+) and Raji (CD19+) cells mixed 1:1, negative control
[4] = biological target: human CD3 on CD3+ Jurkat cells (human) (UniProt P07766); assay: as above
Chain of human CD3 on CD3+ Jurkat cells (human) (P07766 23-207, chain 1 of 3): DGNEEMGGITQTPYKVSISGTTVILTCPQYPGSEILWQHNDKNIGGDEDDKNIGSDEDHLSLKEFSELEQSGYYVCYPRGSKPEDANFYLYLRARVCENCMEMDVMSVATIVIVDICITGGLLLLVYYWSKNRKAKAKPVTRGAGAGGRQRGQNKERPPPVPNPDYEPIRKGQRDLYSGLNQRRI
Chain of human CD3 on CD3+ Jurkat cells (human) (P09693 23-182, chain 2 of 3, further chain): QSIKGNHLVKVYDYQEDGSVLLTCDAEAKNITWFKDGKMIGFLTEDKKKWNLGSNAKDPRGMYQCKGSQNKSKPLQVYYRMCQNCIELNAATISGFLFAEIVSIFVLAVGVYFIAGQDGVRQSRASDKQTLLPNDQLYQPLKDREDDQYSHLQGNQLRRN
Chain of human CD3 on CD3+ Jurkat cells (human) (P04234 22-171, chain 3 of 3, further chain): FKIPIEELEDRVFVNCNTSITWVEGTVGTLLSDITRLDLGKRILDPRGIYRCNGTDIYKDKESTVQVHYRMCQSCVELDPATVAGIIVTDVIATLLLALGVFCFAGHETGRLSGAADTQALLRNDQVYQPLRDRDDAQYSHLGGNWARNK

Chain of human C1Q (human) (P02745 23-245 limits assumed, chain 1 of 3): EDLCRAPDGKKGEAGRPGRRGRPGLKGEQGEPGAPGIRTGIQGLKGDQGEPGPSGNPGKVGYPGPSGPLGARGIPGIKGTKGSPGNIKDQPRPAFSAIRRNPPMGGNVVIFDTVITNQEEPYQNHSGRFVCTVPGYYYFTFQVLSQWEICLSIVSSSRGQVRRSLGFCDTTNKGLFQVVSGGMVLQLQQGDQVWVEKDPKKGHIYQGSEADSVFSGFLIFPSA
Chain of human C1Q (human) (P02746 28-253 limits assumed, chain 2 of 3, further chain): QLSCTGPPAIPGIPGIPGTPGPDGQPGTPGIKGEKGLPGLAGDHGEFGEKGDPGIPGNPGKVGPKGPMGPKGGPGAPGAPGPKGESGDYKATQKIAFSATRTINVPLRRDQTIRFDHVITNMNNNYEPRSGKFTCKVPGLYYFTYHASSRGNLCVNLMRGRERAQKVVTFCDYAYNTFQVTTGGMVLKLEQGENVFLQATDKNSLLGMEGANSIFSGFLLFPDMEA
Chain of human C1Q (human) (P02747 29-245 limits assumed, chain 3 of 3, further chain): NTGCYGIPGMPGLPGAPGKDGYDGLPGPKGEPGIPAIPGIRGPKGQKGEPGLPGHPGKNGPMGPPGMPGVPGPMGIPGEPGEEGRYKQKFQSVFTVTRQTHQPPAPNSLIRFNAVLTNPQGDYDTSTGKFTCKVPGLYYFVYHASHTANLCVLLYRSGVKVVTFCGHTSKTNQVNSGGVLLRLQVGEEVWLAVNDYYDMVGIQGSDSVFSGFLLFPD
Chain of human CD19 on CD19+ B cell lines (Ramos, Raji) (human) (P15391 20-556): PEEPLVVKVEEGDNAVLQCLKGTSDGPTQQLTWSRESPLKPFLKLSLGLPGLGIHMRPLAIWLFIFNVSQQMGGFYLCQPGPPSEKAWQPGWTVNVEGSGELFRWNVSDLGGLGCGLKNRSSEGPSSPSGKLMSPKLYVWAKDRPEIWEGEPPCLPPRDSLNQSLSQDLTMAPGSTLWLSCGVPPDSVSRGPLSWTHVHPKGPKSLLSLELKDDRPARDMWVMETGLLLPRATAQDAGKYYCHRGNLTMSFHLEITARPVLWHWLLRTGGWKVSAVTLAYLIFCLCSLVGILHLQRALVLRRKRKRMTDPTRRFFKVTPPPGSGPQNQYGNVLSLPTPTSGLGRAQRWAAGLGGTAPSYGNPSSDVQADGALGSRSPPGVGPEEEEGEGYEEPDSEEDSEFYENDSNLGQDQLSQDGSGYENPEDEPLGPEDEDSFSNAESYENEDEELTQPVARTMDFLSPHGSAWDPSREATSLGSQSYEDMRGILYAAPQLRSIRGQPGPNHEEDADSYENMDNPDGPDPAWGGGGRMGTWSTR

Row | EC50 (read off the curve) (human C1Q (human) [1]) [nM] | EC50 (read off the curve) (human C1Q (human) [2]) [nM] | Q2 % (events positive for both the CD3+ and the CD19+ cell label) [3] [%] | Q2 % (events positive for both the CD3+ and the CD19+ cell label) [4] [%] | Substance
1 | 30 | 30 | – | – | control human IgG1 antibody
2 | – | – | 4.91 | 4.91 | irrelevant IgG (antibody)
